The results in this text go back to paper PMC4970707.

The target in test [1] is NprR(ΔHTH)(Y223A/F225A) (Bacillus thuringiensis (strain 407)). Put plainly: crystal structure; NprR(ΔHTH)(Y223A/F225A) alone, crystallized at 18°C in 1.0 M Na citrate, 0.1 M Hepes pH 7.6; 3.25 Å, space group P 21 21 21, 2 molecules per asymmetric unit.
Test [2] addresses NprR from B. thuringiensis strain 407 (NprR-6His) (Bacillus thuringiensis (strain 407)). Briefly: MST; 33 nM NprR labelled with NT-495-NHS; Bt Spo0F serially diluted from about 260 μM to 8 nM; 5% glycerol in MST buffer (50 mM Tris-HCl pH 7.4, 150 mM NaCl, 10 mM MgCl2, 0.05% Tween-20); 20% LED power, 40% IR-laser power; absence of NprX; apparent Kd.

For “NprR(ΔHTH)(Y223A/F225A) (domain or fragment)”, in test [1], the stoichiometry N (usually the number of molecules, sites or subunits per partner or assembly) was determined as 2.

B1: Spo0F from B. thuringiensis (6His-Spo0F) (natural protein)
chain: MEGKILIVDDQYGIRVLLHEVFQKEGYQTFQAANGFQALDIVKKDNPDLVVLDMKIPGMDGIEIFKACKEIDESIKVILMSAYGELDMIQEAKDLGALMHFAKPFDIDEIRQAVRNELAVEA
Regarding B1, the Kd in test [2] was determined as 5 µM.
